Target: YFPN-hAQP4 (human aquaporin 4 fused N-terminally to the YFPN fragment) (human) (UniProt P55087)
Assay: split reporter (BiFC, NanoBiT); YFPN-hAQP and YFPC-CaM co-expressed in S. cerevisiae; living cells at OD600 0.5 read by flow cytometry (FACSMelody, excitation 488 nm, FITC channel 527/32 nm); fluorescence frequency and intensity of gated cells; three transformations, ten replicates each

Sequence of UniProt P55087 (P55087 whole entry, the tested form may be a part): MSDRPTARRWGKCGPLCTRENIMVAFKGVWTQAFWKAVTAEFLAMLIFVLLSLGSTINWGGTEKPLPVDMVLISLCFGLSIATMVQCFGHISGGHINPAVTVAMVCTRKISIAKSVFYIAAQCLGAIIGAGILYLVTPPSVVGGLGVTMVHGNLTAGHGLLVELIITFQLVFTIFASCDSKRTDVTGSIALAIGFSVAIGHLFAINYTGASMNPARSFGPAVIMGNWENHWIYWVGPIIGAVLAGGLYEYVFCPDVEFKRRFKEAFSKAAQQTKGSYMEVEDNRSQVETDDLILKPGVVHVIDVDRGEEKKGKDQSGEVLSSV

- average fluorescence intensity (BiFC): 1700
Substance: YFPC-CaM (calmodulin fused N-terminally to the YFPC fragment) (from UniProt P0DP23 1-149) (natural protein)
